Test results reported in the DeepSol protein solubility set.

Experiment: soluble on expression in E. coli; label from the status in PepcDB or PDB records

| Sequence | soluble on expression in E. coli |
| --- | --- |
| MNLKDPICAIATPPGKGAIGVVRLSGEGALEIAARVWRGKDPRRLKGGRFALGEVVDPKTGEAIDQAILLVFRAPRSYTGEDLVEFQTHGSPAVLRRVMEVLVAEGARPAGRGEFTFRAYLNGKMDLAQAEAVLALIEAEGELARRQALRALEGALSRRIEALENRLLNLLAHIQALLDYPEEGVEPLEAERTIREVLAEVEALLAQAKASRLAQKGARLALIGAPNAGKSSLLNALLGYERALVSPIPGTTRDYLEAPLELFGIPLVAVDTAGVRETEDPVERMGVERALGIAEEADLVLYVVDRSQPKPAPPPLPWARTLKVATKSDLPPAWEDPEFLPVSSLTGEGLDRLKEAVREALLGREGGEVLLTERQVEALLRARERLEEALSLPEDLMGLALEEAARALALLTGKEVAEEVVARVFQNFCVGK | soluble |
| MGHHHHHHSHMANSMANSMGITTLDDPLGHMPERFDAFICYCPSDIQFVQEMIRQLEQTNYRLKLCVSDRDVLPGTCVWSIASELIEKRCRRMVVVVSDDYLQSKECDFQTKFALSLSPGAHQKRLIPIKYKAMKKEFPSILRFITVCDYTNPCTKSWFWTRLAKALSLP | soluble |
| MSKIAKTAIISPKAEINKGVEIGEFCVIGDGVKLDEGVKLHNNVTLQGHTFVGKNTEIFPFAVLGTQPQDLKYKGEYSELIIGEDNLIREFCMINPGTEGGIKKTLIGDKNLLMAYVHVAHDCVIGSHCILANGVTLAGHIEIGDYVNIGGLTAIHQFVRIAKGCMIAGKSALGKDVPPYCTVEGNRAFIRGLNRHRMRQLLESKDIDFIYALYKRLFRPIPSLRESAKLELEEHANNPFVKEICSFILESSRGVAYKSSEYSSEEKQEE | soluble |
| MGSDKIHHHHHHMSIDIDIIKARAKNEYRLSKVRGEAMISVRIPGGILPAHLLTVARDIAETWGNGQIHLTTRQKLAMPGIRYEDIDNVNAALEPFLREIEIELCDVQVEDTKAGYLAIGGRNIVACQGNRICQKANTDTTGLSRRLEKLVYPSPYHLKTVIVGCPNDCAKASMADLGIIGVAKMRFTADRCIGCGACVKACSHHAVGCLALKNGKAVKEESACIGCGECVLACPTLAWQRKPDQLWQVRLGGRTSKKTPRVGKLFLNWVTEDVIKQVIVNLYEFEKEMLGGKPIYLHMGHLIDKGGYLRFKERVLRGVQLNPEAMVAERIYWAEDESVARMHLKPAGH | not soluble |
| MMKKLFLDTHSASGEIKLTDGLLYWFPQFLTPIQADQAFQQMLTHLDWQQKSIRLFGKSVLQPRLIAWYGEKGYRYSGLSLSAQPFPPPLLTLKTQCEQAAQAPFNSVLANLYRDGQDSMGWHQDNEPELGSNPVIASLSLGESRRFLLRHHKDHALQVECELNHGDLLIMAGNTQHFWQHAIPKTRQTKQTRINLTFRNILLEHHHHHH | soluble |
| MGSDKIHHHHHHLLKSSSTVHKGADYWTKRISDQEMPALCSTVRELEKLAKDDVSSLAILGRSVMHDNALTSRILRVANSATYNKGINHVSTVSRAAVMLGFDTLRNICITARLLSSLLENKNLSPNVYQRLLKLMAQSFQAAMLARMMMTGHDEKLREEVFIASLLYRIGESAFWSTGGSFSDALDQKLRDSDSEQDPQAIVRDILGTSFSQLTQNIARSWGLGEVLLKSLSHPDERTPEIRCIALADKLAQLLIEPAEDPNEFAERLKQTADMLNIEVSEFRQKVVDCTKATQKLAIDYGAKVLLDFLPKSADVKASVDQEAKPLVVRASDAAIQLKKLRELTGYALTKTDFNQVMLTALEGILSGVGVDRCGVLLLSPNRQLLQPRIMLGDEAEAMKREFIISLDETMSIFSQCVERKTPFWVADPNAKEWQKSINPALKTKLSKTGFFLAPVSIDTRVIGVFFADRSHSGRSFEPQDYDNFTHFTQLANICFGVSVK | not soluble |
| MQDFKKLPTVLTAEELIDKIFRRAARVEGRNPKEKALNKLATISNVSRDYFGKIIGAHPSYENLPDFYREMVDVVVGIRQLKKSLVALKWADGMIQKVVSRAVREVKGGKNPSAVVKSAYGRVASIIEQIDDELRFLNDAKNRMREIPILQDLPTIVVAGYPNVGKSSLVARISTVKPEVASYPFTTKKINLGFAEFAGKRVQIIDTPGLLDRPLSKRNRIERRAVLALKHLADIILFVIDPTETCGYSLEKQLSLLEEIKGYFAKPTVEVYSKADMHDRRDRQAYSAVTGEGIDELIKEIEKMVKIHSQTSTVIAPSGQTSTQEQHSAAALEHHHHHH | not soluble |
| GMHSALQLRSRIKSSGELELSLDSIDTPHPGPDEVLIRIEASPLNPSDLGLLFGAADMSTAKASGTAERPIVTARVPEGAMRSMAGRLDASMPVGNEGAGVVVEAGSSPAAQALMGKTVAAIGGAMYSQYRCIPADQCLVLPEGATPADGASSFVNPLTALGMVETMRLEGHSALVHTAAASNLGQMLNQICLKDGIKLVNIVRKQEQADLLKAQGAVHVCNAASPTFMQDLTEALVSTGATIAFDATGGGKLGGQILTCMEAALNKSAREYSRYGSTTHKQVYLYGGLDTSPTEFNRNFGMAWGMGGWLLFPFLQKIGRERANALKQRVVAELKTTFASHYSKEISLAEVLDLDMIAVYNKRATGEKYLINPNKGLAG | soluble |
| MGSDKIHHHHHHMSIVEEQAQAGAASTSGSLLDDIMAQARISPVDEGYSVAKQGIAALVANILDSGNAAEPVNKALVDSMIVELDKKLSKQIDVILHAKELQELESSWRSLKLLIDRTDFRENIKLLVLHATKEELLEDFEFAPEISQSGFYKHVYSSGYGQFGGQPIGGVIGDYAMTQSSPDIKLMQYVSAVGAMAHAPFISSVAPTFFGVDRFTDLPSIKDLKSVFEGPAYTKWRSLRESEDGRYLGLTAPRFLARLPYDPVENPIKGFNYKEDISTDHEHYLWGNTAYLMGTALTDSFAKYRWCPNIIGPQSGGAITDLPVHVYQAMGQLQAKIPTEVLITDRREYEMAEEGFITLTMRKDSDNAAFFSANSVQKPKVFPNTKEGKEAETNYKLGTQLPYMFIINRLAHYIKVLQREQIGSWKERQDLERELNTWIKQYIADQENPPADVRSRRPLRAAQIKVLDVEGEPGWYQVTMSVRPHFKYMGANFELSLVGRLDKE | not soluble |
| MFEEGSEDEVTLMGCTQDEVKPKVGLSQKKWFPKEDIVLVRAWLNTNKDHVIGNDQQCQSFLKQIASYVAISPQLDYLPKREHAKCKQRWSKVNKSVTKFVGCYKTATTHKTSGQSEDDVMKLAYEIYYNDTKKKFNLEHTWRKLRYDQKWCEAATIKGNKNAKRKCVDGY | soluble |
| MTMQLIGKKSFPRKANRGAKTRNPSIYWNYRQFICSSSSGYPIPMNFSDEFDFDEDRVYEMLCSDDENTTDYSDEIIAIIDANMRSLWIFQL | not soluble |
| SEKVNQTFFLSHGSPTLSIDDSLEARQFFKSWTQKVLPQKPKSILVISAHWDTKFPSVNTVLRNNTIHDFSGFPDPMYKLKYEAPGAIELGKRVKELLMKEGGMKRVDEDTKRGLDHGAWVPLMLMYPEADIPICQLSVQSNQNGSYHYNMGKALASLKDEGVLIIGSGSATHNLRKLDFNITDGSPVPWALEFDHWLRDSLLQGRYGDVNEWEEKAPNAKMAHPWPEHLYPLHVVMGAAGGDAKAEQIHTSWQLGTLSYSSYSFTSSL | soluble |
| MGSDKIHHHHHHMEKTVQLEHMNTRVFVEGAYDTALIPLGSCESHGDHLPFAMDALTAHKLALGVAERMEKVFVLPPTFFGFSQHYWHKPMSISLSQDTNIRVIADILDSLAHWKIRNVLIINGHDGNISAIDVAARAARLRHPDMKIGSLDAWWVTAGNLLPKDTFEVWNGLGHGGEGETSIGLACFPELVDMAHARGMIPEVDENVKELWDFSELTDYGATGAPEKATREKGQAMYDVLVDYLVAYLTKRRDTNWAYNPK | not soluble |
| MSQKEQIKTYKGPAGGWGALKAVTRSWWGSENAVKNIRTMLKTNQNGGFDCPGCAWGESPDSGKVNFCENGAKAVNWEATNRLVDPEFFANHSVSSLSTQTDYWLEYQG | not soluble |
| MMRGGMGNMNNMMKQMQKMQKEMAKAQEELGEKTVEGTAGGGMITVIANGHKQILEVKVKEEVVDPEDIEMLQDLVLAATNDALKKADELSNSTMGKFTKGLNLPGGMF | soluble |
